In US20260242839A1, “GLYCOSIDE PRODUCT BIOSYNTHESIS AND RECOVERY” (Manus Bio Inc., priority 2023, published 2026):

B1: A451T: mutation to UGT enzyme of SEQ ID NO: 13 (protein)
chain: MATKGSSGMSLAERFWLTLSRSSLVVGRSCVEFEPETVPLLSTLRGKPITFLGLMPPLHEGRREDGEDATVRWLDAQPAKSVVYVALGSEVPLGVEKVHELALGLELAGTRFLWALRKPTGVSDADLLPAGFEERTRGRGVVATRWVPQMSILAHAAVGAFLTHCGWNSTIEGLMFGHPLIMLPIFGDQGPNARLIEAKNAGLQVARNDGDGSFDREGVAAAIRAVAVEEESSKVFQAKAKKLQEIVADMACHERYIDGFIQQLRSYKDDSGYSSSYAAAAGMHVVICPWLAFGHLLPCLDLAQRLASRGHRVSFVSTPRNISRLPPVRPALAPLVAFVALPLPRVEGLPDGAESTNDVPHDRPDMVELHRRAFDGLAAPFSEFLGTACADWVIVDVFHHWAAAAALEHKVPCAMMLLGSAEMIASIADERLEHAETESPAAAGQGRPAATPTFEVARMKLIR
B2: V456S: mutation to UGT enzyme of SEQ ID NO: 13 (protein)
chain: MATKGSSGMSLAERFWLTLSRSSLVVGRSCVEFEPETVPLLSTLRGKPITFLGLMPPLHEGRREDGEDATVRWLDAQPAKSVVYVALGSEVPLGVEKVHELALGLELAGTRFLWALRKPTGVSDADLLPAGFEERTRGRGVVATRWVPQMSILAHAAVGAFLTHCGWNSTIEGLMFGHPLIMLPIFGDQGPNARLIEAKNAGLQVARNDGDGSFDREGVAAAIRAVAVEEESSKVFQAKAKKLQEIVADMACHERYIDGFIQQLRSYKDDSGYSSSYAAAAGMHVVICPWLAFGHLLPCLDLAQRLASRGHRVSFVSTPRNISRLPPVRPALAPLVAFVALPLPRVEGLPDGAESTNDVPHDRPDMVELHRRAFDGLAAPFSEFLGTACADWVIVDVFHHWAAAAALEHKVPCAMMLLGSAEMIASIADERLEHAETESPAAAGQGRPAAAPTFESARMKLIR
B3: V456W: mutation to UGT enzyme of SEQ ID NO: 13 (protein)
chain: MATKGSSGMSLAERFWLTLSRSSLVVGRSCVEFEPETVPLLSTLRGKPITFLGLMPPLHEGRREDGEDATVRWLDAQPAKSVVYVALGSEVPLGVEKVHELALGLELAGTRFLWALRKPTGVSDADLLPAGFEERTRGRGVVATRWVPQMSILAHAAVGAFLTHCGWNSTIEGLMFGHPLIMLPIFGDQGPNARLIEAKNAGLQVARNDGDGSFDREGVAAAIRAVAVEEESSKVFQAKAKKLQEIVADMACHERYIDGFIQQLRSYKDDSGYSSSYAAAAGMHVVICPWLAFGHLLPCLDLAQRLASRGHRVSFVSTPRNISRLPPVRPALAPLVAFVALPLPRVEGLPDGAESTNDVPHDRPDMVELHRRAFDGLAAPFSEFLGTACADWVIVDVFHHWAAAAALEHKVPCAMMLLGSAEMIASIADERLEHAETESPAAAGQGRPAAAPTFEWARMKLIR
B4: G5N: mutation to UGT enzyme of SEQ ID NO: 13 (protein)
chain: MATKNSSGMSLAERFWLTLSRSSLVVGRSCVEFEPETVPLLSTLRGKPITFLGLMPPLHEGRREDGEDATVRWLDAQPAKSVVYVALGSEVPLGVEKVHELALGLELAGTRFLWALRKPTGVSDADLLPAGFEERTRGRGVVATRWVPQMSILAHAAVGAFLTHCGWNSTIEGLMFGHPLIMLPIFGDQGPNARLIEAKNAGLQVARNDGDGSFDREGVAAAIRAVAVEEESSKVFQAKAKKLQEIVADMACHERYIDGFIQQLRSYKDDSGYSSSYAAAAGMHVVICPWLAFGHLLPCLDLAQRLASRGHRVSFVSTPRNISRLPPVRPALAPLVAFVALPLPRVEGLPDGAESTNDVPHDRPDMVELHRRAFDGLAAPFSEFLGTACADWVIVDVFHHWAAAAALEHKVPCAMMLLGSAEMIASIADERLEHAETESPAAAGQGRPAAAPTFEVARMKLIR
B5: T453R: mutation to UGT enzyme of SEQ ID NO: 13 (protein)
chain: MATKGSSGMSLAERFWLTLSRSSLVVGRSCVEFEPETVPLLSTLRGKPITFLGLMPPLHEGRREDGEDATVRWLDAQPAKSVVYVALGSEVPLGVEKVHELALGLELAGTRFLWALRKPTGVSDADLLPAGFEERTRGRGVVATRWVPQMSILAHAAVGAFLTHCGWNSTIEGLMFGHPLIMLPIFGDQGPNARLIEAKNAGLQVARNDGDGSFDREGVAAAIRAVAVEEESSKVFQAKAKKLQEIVADMACHERYIDGFIQQLRSYKDDSGYSSSYAAAAGMHVVICPWLAFGHLLPCLDLAQRLASRGHRVSFVSTPRNISRLPPVRPALAPLVAFVALPLPRVEGLPDGAESTNDVPHDRPDMVELHRRAFDGLAAPFSEFLGTACADWVIVDVFHHWAAAAALEHKVPCAMMLLGSAEMIASIADERLEHAETESPAAAGQGRPAAAPRFEVARMKLIR
B6: V456M: mutation to UGT enzyme of SEQ ID NO: 13 (protein)
chain: MATKGSSGMSLAERFWLTLSRSSLVVGRSCVEFEPETVPLLSTLRGKPITFLGLMPPLHEGRREDGEDATVRWLDAQPAKSVVYVALGSEVPLGVEKVHELALGLELAGTRFLWALRKPTGVSDADLLPAGFEERTRGRGVVATRWVPQMSILAHAAVGAFLTHCGWNSTIEGLMFGHPLIMLPIFGDQGPNARLIEAKNAGLQVARNDGDGSFDREGVAAAIRAVAVEEESSKVFQAKAKKLQEIVADMACHERYIDGFIQQLRSYKDDSGYSSSYAAAAGMHVVICPWLAFGHLLPCLDLAQRLASRGHRVSFVSTPRNISRLPPVRPALAPLVAFVALPLPRVEGLPDGAESTNDVPHDRPDMVELHRRAFDGLAAPFSEFLGTACADWVIVDVFHHWAAAAALEHKVPCAMMLLGSAEMIASIADERLEHAETESPAAAGQGRPAAAPTFEMARMKLIR
B7: T453K: mutation to UGT enzyme of SEQ ID NO: 13 (protein)
chain: MATKGSSGMSLAERFWLTLSRSSLVVGRSCVEFEPETVPLLSTLRGKPITFLGLMPPLHEGRREDGEDATVRWLDAQPAKSVVYVALGSEVPLGVEKVHELALGLELAGTRFLWALRKPTGVSDADLLPAGFEERTRGRGVVATRWVPQMSILAHAAVGAFLTHCGWNSTIEGLMFGHPLIMLPIFGDQGPNARLIEAKNAGLQVARNDGDGSFDREGVAAAIRAVAVEEESSKVFQAKAKKLQEIVADMACHERYIDGFIQQLRSYKDDSGYSSSYAAAAGMHVVICPWLAFGHLLPCLDLAQRLASRGHRVSFVSTPRNISRLPPVRPALAPLVAFVALPLPRVEGLPDGAESTNDVPHDRPDMVELHRRAFDGLAAPFSEFLGTACADWVIVDVFHHWAAAAALEHKVPCAMMLLGSAEMIASIADERLEHAETESPAAAGQGRPAAAPKFEVARMKLIR
B8: M55L: mutation to UGT enzyme of SEQ ID NO: 13 (protein)
chain: MATKGSSGMSLAERFWLTLSRSSLVVGRSCVEFEPETVPLLSTLRGKPITFLGLLPPLHEGRREDGEDATVRWLDAQPAKSVVYVALGSEVPLGVEKVHELALGLELAGTRFLWALRKPTGVSDADLLPAGFEERTRGRGVVATRWVPQMSILAHAAVGAFLTHCGWNSTIEGLMFGHPLIMLPIFGDQGPNARLIEAKNAGLQVARNDGDGSFDREGVAAAIRAVAVEEESSKVFQAKAKKLQEIVADMACHERYIDGFIQQLRSYKDDSGYSSSYAAAAGMHVVICPWLAFGHLLPCLDLAQRLASRGHRVSFVSTPRNISRLPPVRPALAPLVAFVALPLPRVEGLPDGAESTNDVPHDRPDMVELHRRAFDGLAAPFSEFLGTACADWVIVDVFHHWAAAAALEHKVPCAMMLLGSAEMIASIADERLEHAETESPAAAGQGRPAAAPTFEVARMKLIR
B9: S20E: mutation to UGT enzyme of SEQ ID NO: 13 (protein)
chain: MATKGSSGMSLAERFWLTLERSSLVVGRSCVEFEPETVPLLSTLRGKPITFLGLMPPLHEGRREDGEDATVRWLDAQPAKSVVYVALGSEVPLGVEKVHELALGLELAGTRFLWALRKPTGVSDADLLPAGFEERTRGRGVVATRWVPQMSILAHAAVGAFLTHCGWNSTIEGLMFGHPLIMLPIFGDQGPNARLIEAKNAGLQVARNDGDGSFDREGVAAAIRAVAVEEESSKVFQAKAKKLQEIVADMACHERYIDGFIQQLRSYKDDSGYSSSYAAAAGMHVVICPWLAFGHLLPCLDLAQRLASRGHRVSFVSTPRNISRLPPVRPALAPLVAFVALPLPRVEGLPDGAESTNDVPHDRPDMVELHRRAFDGLAAPFSEFLGTACADWVIVDVFHHWAAAAALEHKVPCAMMLLGSAEMIASIADERLEHAETESPAAAGQGRPAAAPTFEVARMKLIR
B10: A451L: mutation to UGT enzyme of SEQ ID NO: 13 (protein)
chain: MATKGSSGMSLAERFWLTLSRSSLVVGRSCVEFEPETVPLLSTLRGKPITFLGLMPPLHEGRREDGEDATVRWLDAQPAKSVVYVALGSEVPLGVEKVHELALGLELAGTRFLWALRKPTGVSDADLLPAGFEERTRGRGVVATRWVPQMSILAHAAVGAFLTHCGWNSTIEGLMFGHPLIMLPIFGDQGPNARLIEAKNAGLQVARNDGDGSFDREGVAAAIRAVAVEEESSKVFQAKAKKLQEIVADMACHERYIDGFIQQLRSYKDDSGYSSSYAAAAGMHVVICPWLAFGHLLPCLDLAQRLASRGHRVSFVSTPRNISRLPPVRPALAPLVAFVALPLPRVEGLPDGAESTNDVPHDRPDMVELHRRAFDGLAAPFSEFLGTACADWVIVDVFHHWAAAAALEHKVPCAMMLLGSAEMIASIADERLEHAETESPAAAGQGRPAALPTFEVARMKLIR

Each molecule was assayed on steviol glycoside (assay: steviol glycoside bioconversion by E. coli expressing individual mutations of UGT SEQ ID NO: 13). Conditions: fold improvement of % conversion vs parent UGT SEQ ID NO: 13; stevia leaf extract and glucose fed; 37° C., 48 hr.
Assay type: cell-based
Excerpt: A UGT enzyme referred to as MbUGT1,2 is described in U.S. Pat. No. 10,743,567, which is hereby incorporated by reference. An engineered version of MbUGT1,2 (SEQ ID NO: 13) is described in US 2020/0087692, which is hereby incorporated by reference in its entirety. The UGT enzyme of SEQ ID NO: 13 was further engineered to improve activity for steviol glycoside bioconversion. […] Fold improvement is with respect to % steviol glycoside conversion of the parent UGT enzyme (SEQ ID NO: 13). SEQ ID NO: 14 has the following mutations from SEQ ID NO: 13: G5N, F186T, V397S. Stevia leaf extract and glucose were fed to the bioconversion strains. Bioconversion took place at 37° C. for 48 hr. Data were quantified by reverse phase LC DAD to quantify conversion of steviol glycosides.
Fold improvement (FI) is with respect to % steviol glycoside conversion.

Going from B1 to B2, the “FI %Stevioside→rebE” value falls from 1.8 to 1.5.

Compared with B3, B4 is higher in “FI %Stevioside→rebE” value: 1.2 for the first, 1.5 for the second.

First: B5
Second: B6
The “FI %Stevioside→rebE” value of the first is lower: 1.4 for the first, 1.5 for the second.

First: B7
Second: B8
The “FI %Stevioside→rebE” value of the first is higher: 1.4 for the first, 1.1 for the second.

First: B9
Second: B10
The “FI %Stevioside→rebE” value of the first is lower: 1.2 for the first, 1.4 for the second.

Compared with B1, B2 is lower in “FI %rebA→rebD” value: 2.0 for the first, 1.6 for the second.

Going from B3 to B4, the “FI %rebA→rebD” value rises from 1.2 to 1.5.

First: B5
Second: B6
The “FI %rebA→rebD” value of the first is higher: 1.6 for the first, 1.5 for the second.

Compared with B7, B8 is lower in “FI %rebA→rebD” value: 1.6 for the first, 1.0 for the second.

First: B9
Second: B10
The “FI %rebA→rebD” value of the first is lower: 1.1 for the first, 1.5 for the second.
